# From article doi:10.1101/2020.10.14.337444
# Columns and labels:
# ENO1 wt = ENO1 wt (Homo sapiens, UniProt P06733 1-434); test: competition EMSA
# ENO1down = ENO1down (Homo sapiens, UniProt P06733 1-434, K343A); test: competition EMSA
# ENO1down, sequence (P06733 whole entry K343A): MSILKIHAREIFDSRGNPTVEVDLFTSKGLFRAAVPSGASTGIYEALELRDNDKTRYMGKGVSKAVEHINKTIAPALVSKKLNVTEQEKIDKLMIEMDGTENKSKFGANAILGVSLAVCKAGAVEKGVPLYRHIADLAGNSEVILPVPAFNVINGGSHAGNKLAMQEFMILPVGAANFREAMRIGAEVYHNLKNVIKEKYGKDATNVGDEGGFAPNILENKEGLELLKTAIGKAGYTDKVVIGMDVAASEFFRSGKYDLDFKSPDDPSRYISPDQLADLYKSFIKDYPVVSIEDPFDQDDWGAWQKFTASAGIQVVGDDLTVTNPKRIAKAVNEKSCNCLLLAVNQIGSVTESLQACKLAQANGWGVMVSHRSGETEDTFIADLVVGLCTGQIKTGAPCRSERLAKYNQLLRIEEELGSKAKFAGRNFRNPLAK
# ENO1 wt, sequence (P06733 whole entry): as the sequence (P06733 whole entry K343A) above, with A343K counted along it
Binder,Ki (ENO1 wt) [nM],Ki (ENO1down) [nM]
CCUCUUUUAUAAAAUAACCCGGUGAAGCAGCCGAG (ssRNA) [PABPC1 target 35-mer],27 ± 19,224 ± 12
GGCCCCCAGCCCCGGCACUCGCUCUCCUCCUCUCA (ssRNA) [PABPC1 control 35-mer],2587 ± 9,3261 ± 12
